Results from IntAct's records for PubMed 17405859.

B1: Neuropilin-1 (Rattus norvegicus (Rat)), Q9QWJ9 (parent)
chain: MERGLPLLCATLALALALAGAFRSDKCGGTIKIENPGYLTSPGYPHSYHPSEKCEWLIQAPEPYQRIMINFNPHFDLEDRDCKYDYVEVIDGENEGGRLWGKFCGKIAPSPVVSSGPFLFIKFVSDYETHGAGFSIRYEIFKRGPECSQNYTAPTGVIKSPGFPEKYPNSLECTYIIFAPKMSEIILEFESFDLEQDSNPPGGVFCRYDRLEIWDGFPEVGPHIGRYCGQKTPGRIRSSSGILSMVFYTDSAIAKEGFSANYSVLQSSISEDFKCMEALGMESGEIHSDQITASSQYGTNWSVERSRLNYPENGWTPGEDSYREWIQVDLGLLRFVTAVGTQGAISKETKKKYYVKTYRVDISSNGEDWITLKEGNKAIIFQGNTNPTDVVFGVFPKPLITRFVRIKPASWETGISMRFEVYGCKITDYPCSGMLGMVSGLISDSQITASNQGDRNWMPENIRLVTSRTGWALPPSPHPYINEWLQVDLGDEKIVRGVIIQGGKHRENKVFMRKFKIAYSNNGSDWKMIMDDSKRKAKSFEGNNNYDTPELRAFTPLSTRFIRIYPERATHSGLGLRMELLGCEVEVPTAGPTTPNGNPVDECDDDQANCHSGTGDDFQLTGGTTVLATEKPTIIDSTIQSEFPTYGFNCEFGWGSHKTFCHWEHDSHAQLRWRVLTSKTGPIQDHTGDGNFIYSQADENQKGKVARLVSPVVYSQSSAHCMTFWYHMSGSHVGTLRVKLHYQKPEEYDQLVWMVVGHQGDHWKEGRVLLHKSLKLYQVIFEGEIGKGNLGGIAVDDISINNHIPQEDCAKPTDLDKKNTEIKIDETGSTPGYEEGKGDKNISRKPGNVLKTLDPILITIIAMSALGVLLGAVCGVVLYCACWHNGMSERNLSALENYNFELVDGVKLKKDKLNPQSNYSEA

Variants of: B1
Conditions: with vegfa_human VEGFA

Effect of a mutation on the interaction, disrupting interaction strength:
S346A
E348A
T349A
